Paper doi:10.1101/2024.12.23.630205 (bioRxiv, 2024)
“And” between values parts separate entries of the source, which are not always exact repeats. Equal entries are not always repeated.

B1: GST-TULP3 (60-442 aa, construct-2) (domain or fragment, human, UniProt O75386 60-442, looked up)
chain: AKPRASDEQTPLVNCHTPHSNVILHGIDGPAAVLKPDEVHAPSVSSSVVEEDAENTVDTASKPGLQERLQKHDISESVNFDEETDGISQSACLERPNSASSQNSTDTGTSGSATAAQPADNLLGDIDDLEDFVYSPAPQGVTVRCRIIRDKRGMDRGLFPTYYMYLEKEENQKIFLLAARKRKKSKTANYLISIDPVDLSREGESYVGKLRSNLMGTKFTVYDRGICPMKGRGLVGAAHTRQELAAISYETNVLGFKGPRKMSVIIPGMTLNHKQIPYQPQNNHDSLLSRWQNRTMENLVELHNKAPVWNSDTQSYVLNFRGRVTQASVKNFQIVHKNDPDYIVMQFGRVADDVFTLDYNYPLCAVQAFGIGLSSFDSKLACE
B3: hSIRT2 (36-356 aa), purified, thrombin-digested (domain or fragment, human, UniProt Q8IXJ6 36-356, looked up)
chain: ADMDFLRNLFSQTLSLGSQKERLLDELTLEGVARYMQSERCRRVICLVGAGISTSAGIPDFRSPSTGLYDNLEKYHLPYPEAIFEISYFKKHPEPFFALAKELYPGQFKPTICHYFMRLLKDKGLLLRCYTQNIDTLERIAGLEQEDLVEAHGTFYTSHCVSASCRHEYPLSWMKEKIFSEVTPKCEDCQSLVKPDIVFFGESLPARFFSCMQSDFLKVDLLLVMGTSLQVQPFASLISKAPLSTPRLLINKEKAGQSDPFLGMIMGLGGGMDFDSKKAYRDVAWLGECDQGCLALAELLGWKKELEDLVRREHASIDAQS

Assays:
[1] = target: T1, hSIRT1 (114-510 aa), purified, thrombin-digested (human, UniProt Q96EB6 114-510, NT-647 fluorescent dye (in the MST only)); assay: SPR
T1 sequence (looked up): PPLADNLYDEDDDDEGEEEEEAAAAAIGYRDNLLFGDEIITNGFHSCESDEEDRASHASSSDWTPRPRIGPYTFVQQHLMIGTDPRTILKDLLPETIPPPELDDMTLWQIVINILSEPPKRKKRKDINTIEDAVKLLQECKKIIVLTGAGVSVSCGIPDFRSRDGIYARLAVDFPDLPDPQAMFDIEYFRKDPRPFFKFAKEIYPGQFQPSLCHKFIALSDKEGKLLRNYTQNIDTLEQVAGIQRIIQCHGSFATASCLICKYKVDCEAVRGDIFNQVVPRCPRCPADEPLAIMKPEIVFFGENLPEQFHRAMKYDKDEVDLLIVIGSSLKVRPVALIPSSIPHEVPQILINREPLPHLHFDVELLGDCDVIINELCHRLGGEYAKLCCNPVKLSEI

native gel or EMSA = target: the molecule itself; assay: native gel or EMSA
[2] = target: B1; assay: SPR
SEC = target: the molecule itself; assay: SEC
[3] = target: T1, hSIRT1 (114-510 aa), purified, …; assay: MST
[4] = target: B3; assay: SPR

Binder: B1
- Kd [1]: 8.1 µM

B2: deleted hTULP3 (60-442 aa, construct-2), GST tag removed (domain or fragment, human, UniProt O75386 60-442, looked up)
chain: AKPRASDEQTPLVNCHTPHSNVILHGIDGPAAVLKPDEVHAPSVSSSVVEEDAENTVDTASKPGLQERLQKHDISESVNFDEETDGISQSACLERPNSASSQNSTDTGTSGSATAAQPADNLLGDIDDLEDFVYSPAPQGVTVRCRIIRDKRGMDRGLFPTYYMYLEKEENQKIFLLAARKRKKSKTANYLISIDPVDLSREGESYVGKLRSNLMGTKFTVYDRGICPMKGRGLVGAAHTRQELAAISYETNVLGFKGPRKMSVIIPGMTLNHKQIPYQPQNNHDSLLSRWQNRTMENLVELHNKAPVWNSDTQSYVLNFRGRVTQASVKNFQIVHKNDPDYIVMQFGRVADDVFTLDYNYPLCAVQAFGIGLSSFDSKLACE
- stoichiometry N (native gel or EMSA): 2

Binder: B3
- Kd [2]: 66.7 µM and 66.5 µM

B4: N-terminal hTULP3 (1-148 aa, construct-1), GST tag removed (domain or fragment, human, UniProt O75386 1-148, looked up)
chain: MEASRCRLSPSGDSVFHEEMMKMRQAKLDYQRLLLEKRQRKKRLEPFMVQPNPEARLRRAKPRASDEQTPLVNCHTPHSNVILHGIDGPAAVLKPDEVHAPSVSSSVVEEDAENTVDTASKPGLQERLQKHDISESVNFDEETDGISQ
- stoichiometry N (SEC): 2
- Kd [3]: 28 µM

B5: GST-tagged N-terminal hTULP3 (1-148 aa, construct-1) (domain or fragment, human, UniProt O75386 1-148, looked up)
chain: MEASRCRLSPSGDSVFHEEMMKMRQAKLDYQRLLLEKRQRKKRLEPFMVQPNPEARLRRAKPRASDEQTPLVNCHTPHSNVILHGIDGPAAVLKPDEVHAPSVSSSVVEEDAENTVDTASKPGLQERLQKHDISESVNFDEETDGISQ
- binding result [4]: binds
